Experimental data as given in patent US20220332804A1 (CSL INNOVATION, published 2022).

Assays:
Assay in all cases: SPR, antibody captured, C2 as analyte;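 also: biacore at 37 °C, anti-C2 mAbs held by immobilised goat anti-human IgG, C2 alanine or serine mutants injected, double-referenced sensorgrams fitted to a 1:1 kinetic or steady-state model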
human C2 N325A = target: T1, human C2 N325A (human, UniProt P06681 21-752)
T1 sequence: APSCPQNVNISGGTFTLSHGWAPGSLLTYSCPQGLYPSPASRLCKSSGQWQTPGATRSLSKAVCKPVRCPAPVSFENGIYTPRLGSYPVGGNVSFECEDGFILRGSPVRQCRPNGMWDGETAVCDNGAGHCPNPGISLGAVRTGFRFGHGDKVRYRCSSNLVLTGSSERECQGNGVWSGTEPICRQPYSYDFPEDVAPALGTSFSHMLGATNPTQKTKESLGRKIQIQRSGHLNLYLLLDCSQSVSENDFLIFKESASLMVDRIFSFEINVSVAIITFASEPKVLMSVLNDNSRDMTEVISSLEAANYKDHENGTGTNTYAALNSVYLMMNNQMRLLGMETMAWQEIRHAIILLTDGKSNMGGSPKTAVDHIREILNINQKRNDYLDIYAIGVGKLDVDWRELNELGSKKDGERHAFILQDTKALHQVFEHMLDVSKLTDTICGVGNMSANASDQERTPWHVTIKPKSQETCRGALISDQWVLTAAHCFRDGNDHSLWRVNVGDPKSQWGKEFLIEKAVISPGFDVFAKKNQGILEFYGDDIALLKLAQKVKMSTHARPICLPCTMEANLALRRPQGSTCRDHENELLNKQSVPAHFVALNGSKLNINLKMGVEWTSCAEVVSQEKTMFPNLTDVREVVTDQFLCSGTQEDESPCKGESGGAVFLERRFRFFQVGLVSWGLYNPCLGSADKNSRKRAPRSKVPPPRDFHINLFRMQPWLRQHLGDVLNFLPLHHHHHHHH

human C2 N403A = target: T2, human C2 N403A (human, UniProt P06681 21-752)
T2 sequence: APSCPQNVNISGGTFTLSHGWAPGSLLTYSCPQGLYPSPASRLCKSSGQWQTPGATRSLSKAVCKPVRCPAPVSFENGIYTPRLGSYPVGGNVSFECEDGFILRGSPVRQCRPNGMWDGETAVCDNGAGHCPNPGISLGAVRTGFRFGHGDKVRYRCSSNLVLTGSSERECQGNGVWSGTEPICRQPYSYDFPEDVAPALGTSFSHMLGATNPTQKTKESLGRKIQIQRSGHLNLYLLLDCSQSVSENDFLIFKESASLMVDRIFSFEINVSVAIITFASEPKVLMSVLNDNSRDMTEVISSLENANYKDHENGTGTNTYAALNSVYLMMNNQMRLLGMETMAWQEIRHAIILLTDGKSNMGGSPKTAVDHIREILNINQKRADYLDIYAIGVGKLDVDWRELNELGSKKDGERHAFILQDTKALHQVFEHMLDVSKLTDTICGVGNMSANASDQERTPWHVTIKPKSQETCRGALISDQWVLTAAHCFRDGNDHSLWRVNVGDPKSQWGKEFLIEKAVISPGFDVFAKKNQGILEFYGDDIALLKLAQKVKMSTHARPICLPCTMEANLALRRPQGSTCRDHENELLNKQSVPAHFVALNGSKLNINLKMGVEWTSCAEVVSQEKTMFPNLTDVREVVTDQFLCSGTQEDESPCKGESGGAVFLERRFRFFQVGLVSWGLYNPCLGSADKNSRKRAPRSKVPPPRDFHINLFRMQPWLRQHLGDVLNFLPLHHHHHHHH

human C2 S428A = target: T3, human C2 S428A (human, UniProt P06681 21-752)
T3 sequence: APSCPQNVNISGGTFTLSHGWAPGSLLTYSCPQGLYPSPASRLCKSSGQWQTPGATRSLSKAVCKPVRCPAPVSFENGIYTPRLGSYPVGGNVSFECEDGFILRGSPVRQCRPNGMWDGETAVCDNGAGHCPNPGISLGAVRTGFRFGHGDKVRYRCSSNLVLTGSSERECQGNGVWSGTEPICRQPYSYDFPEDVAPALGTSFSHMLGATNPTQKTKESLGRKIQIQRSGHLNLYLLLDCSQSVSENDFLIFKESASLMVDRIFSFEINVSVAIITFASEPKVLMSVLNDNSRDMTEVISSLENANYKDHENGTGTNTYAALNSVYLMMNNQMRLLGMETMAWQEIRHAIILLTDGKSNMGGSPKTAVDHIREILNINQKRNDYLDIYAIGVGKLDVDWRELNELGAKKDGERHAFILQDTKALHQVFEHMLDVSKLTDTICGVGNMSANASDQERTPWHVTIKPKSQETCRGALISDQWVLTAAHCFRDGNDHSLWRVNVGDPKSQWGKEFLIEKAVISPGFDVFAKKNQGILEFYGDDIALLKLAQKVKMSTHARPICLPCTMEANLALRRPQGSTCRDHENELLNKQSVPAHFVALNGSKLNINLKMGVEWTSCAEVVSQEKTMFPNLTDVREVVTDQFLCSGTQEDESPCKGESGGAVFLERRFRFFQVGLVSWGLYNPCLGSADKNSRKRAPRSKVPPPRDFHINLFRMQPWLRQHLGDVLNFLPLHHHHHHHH

human C2 L453A = target: T4, human C2 L453A (human, UniProt P06681 21-752)
T4 sequence: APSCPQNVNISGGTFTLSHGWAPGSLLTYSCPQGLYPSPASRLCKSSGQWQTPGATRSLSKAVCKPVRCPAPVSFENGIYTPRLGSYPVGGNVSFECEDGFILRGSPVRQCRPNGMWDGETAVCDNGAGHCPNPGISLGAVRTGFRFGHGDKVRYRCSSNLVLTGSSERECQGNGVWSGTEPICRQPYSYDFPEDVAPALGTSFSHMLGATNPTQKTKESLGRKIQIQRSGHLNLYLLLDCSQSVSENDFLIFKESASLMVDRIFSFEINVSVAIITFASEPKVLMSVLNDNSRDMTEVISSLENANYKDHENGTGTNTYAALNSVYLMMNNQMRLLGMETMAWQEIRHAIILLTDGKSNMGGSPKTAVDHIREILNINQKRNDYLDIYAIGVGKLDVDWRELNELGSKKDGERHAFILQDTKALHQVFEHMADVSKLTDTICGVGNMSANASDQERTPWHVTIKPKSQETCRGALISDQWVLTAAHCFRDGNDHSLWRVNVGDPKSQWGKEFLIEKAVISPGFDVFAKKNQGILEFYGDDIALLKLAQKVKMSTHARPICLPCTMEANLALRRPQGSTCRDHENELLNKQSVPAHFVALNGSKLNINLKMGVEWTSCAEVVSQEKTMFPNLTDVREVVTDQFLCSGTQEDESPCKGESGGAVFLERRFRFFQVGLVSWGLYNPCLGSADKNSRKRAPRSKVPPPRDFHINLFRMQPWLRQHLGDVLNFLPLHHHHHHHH

B1: RF16-242 (antibody, human IgG4 S228P, lambda, V domains shown)
VH: EVQLLQSGAEVKKPGESLKISCKGSGYSFTSYWIGWVRQMPGKGLEWMGIIYPGDSDTRYSPSFQGQVTISADKSISTAYLQWSSLKASDTAMYYCARRGHYGDYFDYWGQGTLVTVSS
VL: SYELTQPPSVSVSPGQTARITCSGDALPKKYAYWYHQKSGQAPVLVIYEDRRRPSEIPERFSGSSSGTMATLTITGAQVEDEGVYFCYSRDRAGNQRVFGGGTQLTVLG
notes: pH-dependent anti-C2 antibody from a phage display library
B1 was tested, and the Kd (human C2 N325A) was 39.9 nM, the Kd (human C2 N403A) was 8.2 nM and the Kd (human C2 S428A) was 18.6 nM. The Kd (human C2 L453A) was 6.8 nM.
